Sequences and labels used below:
B1: Chromodomain-helicase-DNA-binding protein 7, residues 2564 to 2605; numbered along this chain, Q9P2D1 (parent)
chain: DPDTRIPVINLEDGTRLVGEDAPKNKDLVEWLKLHPTYTVDM

± gives the uncertainty stated by the source.

Consider 60 variants from the Human Domainome abundance scans (Beltran et al. 2025).

In the data set the parent is B1. Description: abundance fitness (aPCA) (normalised: wild type 0, dead -1); higher = more abundant; growth selection in yeast, the domain comes from the species named. To be noted: Homo sapiens.
For DPDTRIPVTNLEDGTRLVGEDAPKNKDLVEWLKLHPTYTVDM [I9T], the abundance fitness was -0.012 ± 0.095. For DPDTRIPVFNLEDGTRLVGEDAPKNKDLVEWLKLHPTYTVDM [I9F] the value was -0.075 ± 0.1; for DPDTRIPVCNLEDGTRLVGEDAPKNKDLVEWLKLHPTYTVDM [I9C], -0.123 ± 0.09; for DPDTRIPVENLEDGTRLVGEDAPKNKDLVEWLKLHPTYTVDM [I9E], -0.088 ± 0.21. Regarding DPDTRIPVSNLEDGTRLVGEDAPKNKDLVEWLKLHPTYTVDM [I9S], the abundance fitness is -0.098 ± 0.091. Turning to DPDTRIPVLNLEDGTRLVGEDAPKNKDLVEWLKLHPTYTVDM [I9L], the abundance fitness stood at 0.026 ± 0.078.

As to DPDTRIPVDNLEDGTRLVGEDAPKNKDLVEWLKLHPTYTVDM [I9D], the abundance fitness was -0.345 ± 0.12.

Consider DPDTRIPVQNLEDGTRLVGEDAPKNKDLVEWLKLHPTYTVDM [I9Q], for which the abundance fitness is -0.032 ± 0.12.

DPDTRIPVANLEDGTRLVGEDAPKNKDLVEWLKLHPTYTVDM [I9A]: the abundance fitness is -0.111 ± 0.1. For DPDTRIPVRNLEDGTRLVGEDAPKNKDLVEWLKLHPTYTVDM [I9R] the value was 0.064 ± 0.12; for DPDTRIPVVNLEDGTRLVGEDAPKNKDLVEWLKLHPTYTVDM [I9V], 0.04 ± 0.053; for DPDTRIPVGNLEDGTRLVGEDAPKNKDLVEWLKLHPTYTVDM [I9G], -0.159 ± 0.063.

As for DPDTRIPVINLEDGVRLVGEDAPKNKDLVEWLKLHPTYTVDM [T15V], the abundance fitness is 0.023 ± 0.068. As to DPDTRIPVINLEDGKRLVGEDAPKNKDLVEWLKLHPTYTVDM [T15K], the abundance fitness is 0.051 ± 0.21. Then DPDTRIPVINLEDGRRLVGEDAPKNKDLVEWLKLHPTYTVDM [T15R], with 0.064 ± 0.1; and DPDTRIPVINLEDGARLVGEDAPKNKDLVEWLKLHPTYTVDM [T15A], with 0.069 ± 0.082. Then DPDTRIPVINLEDGPRLVGEDAPKNKDLVEWLKLHPTYTVDM [T15P], with -0.252 ± 0.16; and DPDTRIPVINLEDGGRLVGEDAPKNKDLVEWLKLHPTYTVDM [T15G], with 0.081 ± 0.053; and DPDTRIPVINLEDGNRLVGEDAPKNKDLVEWLKLHPTYTVDM [T15N], with 0.117 ± 0.07. Then DPDTRIPVINLEDGDRLVGEDAPKNKDLVEWLKLHPTYTVDM [T15D], with 0.018 ± 0.096; and DPDTRIPVINLEDGLRLVGEDAPKNKDLVEWLKLHPTYTVDM [T15L], with -0.055 ± 0.083; and DPDTRIPVINLEDGFRLVGEDAPKNKDLVEWLKLHPTYTVDM [T15F], with -0.218 ± 0.087. For the variant DPDTRIPVINLEDGMRLVGEDAPKNKDLVEWLKLHPTYTVDM [T15M], the abundance fitness is -0.264 ± 0.15.

DPDTRIPVINLEDGHRLVGEDAPKNKDLVEWLKLHPTYTVDM [T15H]: the abundance fitness was -0.128 ± 0.19. In the case of DPDTRIKVINLEDGTRLVGEDAPKNKDLVEWLKLHPTYTVDM [P7K], the abundance fitness came to 0.082 ± 0.13. Then DPDTRIQVINLEDGTRLVGEDAPKNKDLVEWLKLHPTYTVDM [P7Q], with -0.691 ± 0.44; and DPDTRIAVINLEDGTRLVGEDAPKNKDLVEWLKLHPTYTVDM [P7A], with 0.067 ± 0.13. For DPDTRITVINLEDGTRLVGEDAPKNKDLVEWLKLHPTYTVDM [P7T] the value was -0.046 ± 0.34. For DPDTRICVINLEDGTRLVGEDAPKNKDLVEWLKLHPTYTVDM [P7C], the abundance fitness was -0.347 ± 0.2. For DPDTRIFVINLEDGTRLVGEDAPKNKDLVEWLKLHPTYTVDM [P7F] the value was -1.07 ± 0.27; for DPDTRIGVINLEDGTRLVGEDAPKNKDLVEWLKLHPTYTVDM [P7G], 0.227 ± 0.096; for DPDTRIMVINLEDGTRLVGEDAPKNKDLVEWLKLHPTYTVDM [P7M], -0.297 ± 0.12. As to DPDTRIVVINLEDGTRLVGEDAPKNKDLVEWLKLHPTYTVDM [P7V], the abundance fitness is -0.238 ± 0.12.

Regarding DPDTRIRVINLEDGTRLVGEDAPKNKDLVEWLKLHPTYTVDM [P7R], the abundance fitness amounted to 0.064 ± 0.14.

Consider DPDTRINVINLEDGTRLVGEDAPKNKDLVEWLKLHPTYTVDM [P7N], for which the abundance fitness is -0.145 ± 0.22.

Take DPDTRIDVINLEDGTRLVGEDAPKNKDLVEWLKLHPTYTVDM [P7D]: the abundance fitness is 0.133 ± 0.13. For DPDTRIPVILLEDGTRLVGEDAPKNKDLVEWLKLHPTYTVDM [N10L] the value was -1.01 ± 0.076; for DPDTRIPVICLEDGTRLVGEDAPKNKDLVEWLKLHPTYTVDM [N10C], -0.054 ± 0.059; for DPDTRIPVIGLEDGTRLVGEDAPKNKDLVEWLKLHPTYTVDM [N10G], -0.388 ± 0.061. Then DPDTRIPVIQLEDGTRLVGEDAPKNKDLVEWLKLHPTYTVDM [N10Q], with -0.738 ± 0.24; and DPDTRIPVIALEDGTRLVGEDAPKNKDLVEWLKLHPTYTVDM [N10A], with -0.598 ± 0.081; and DPDTRIPVIILEDGTRLVGEDAPKNKDLVEWLKLHPTYTVDM [N10I], with -1.4 ± 0.24. For DPDTRIPVIWLEDGTRLVGEDAPKNKDLVEWLKLHPTYTVDM [N10W] the value was -0.549 ± 0.22; for DPDTRIPVITLEDGTRLVGEDAPKNKDLVEWLKLHPTYTVDM [N10T], -0.466 ± 0.2.

Turning to DPDTRIPVIKLEDGTRLVGEDAPKNKDLVEWLKLHPTYTVDM [N10K], the abundance fitness was -0.341 ± 0.065. For DPDTRIPVIMLEDGTRLVGEDAPKNKDLVEWLKLHPTYTVDM [N10M] the value was -0.598 ± 0.074; for DPDTRIPVIYLEDGTRLVGEDAPKNKDLVEWLKLHPTYTVDM [N10Y], -0.989 ± 0.18; for DPDTRIPVIVLEDGTRLVGEDAPKNKDLVEWLKLHPTYTVDM [N10V], -0.852 ± 0.086.

Consider DPDTRIPVIFLEDGTRLVGEDAPKNKDLVEWLKLHPTYTVDM [N10F], for which the abundance fitness was -0.85 ± 0.065. For DPDTRIPVIDLEDGTRLVGEDAPKNKDLVEWLKLHPTYTVDM [N10D] the value was -0.154 ± 0.07; for DPDTRIPVIHLEDGTRLVGEDAPKNKDLVEWLKLHPTYTVDM [N10H], -0.298 ± 0.1. For DPDTRIPVISLEDGTRLVGEDAPKNKDLVEWLKLHPTYTVDM [N10S] the value was -0.025 ± 0.056; for DPDTRIPVIRLEDGTRLVGEDAPKNKDLVEWLKLHPTYTVDM [N10R], -0.409 ± 0.062. For DPDTRIPVIELEDGTRLVGEDAPKNKDLVEWLKLHPTYTVDM [N10E] the value was -0.786 ± 0.41; for DPDTRIPLINLEDGTRLVGEDAPKNKDLVEWLKLHPTYTVDM [V8L], -0.481 ± 0.1. For the variant DPDTRIPQINLEDGTRLVGEDAPKNKDLVEWLKLHPTYTVDM [V8Q], the abundance fitness is -0.384 ± 0.21. Then DPDTRIPAINLEDGTRLVGEDAPKNKDLVEWLKLHPTYTVDM [V8A], with -0.535 ± 0.18. DPDTRIPDINLEDGTRLVGEDAPKNKDLVEWLKLHPTYTVDM [V8D]: the abundance fitness is -0.511 ± 0.16. For DPDTRIPGINLEDGTRLVGEDAPKNKDLVEWLKLHPTYTVDM [V8G] the value was -0.66 ± 0.079.

On to DPDTRIPSINLEDGTRLVGEDAPKNKDLVEWLKLHPTYTVDM [V8S], for which the abundance fitness is -0.644 ± 0.2.
